From paper PMC6542653
Residue numbers refer to the chain shown, from its start.

Columns and labels:
[1] = target: T1, CytR DNA-binding domain double mutant (DM) (UniProt P0ACN7 1-66, A29V;A48M); experiment: fluorescence anisotropy
T1 sequence: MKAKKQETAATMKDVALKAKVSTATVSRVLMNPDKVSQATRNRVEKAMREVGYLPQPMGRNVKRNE

[2] = target: T2, CytR DNA-binding domain wild type (UniProt P0ACN7 1-66); experiment: fluorescence anisotropy
T2 sequence: T1 sequence with V29A, M48A

B1: udp half-site (udpO) (dsDNA)
DNA 1: ATTTATGCAACGCA
DNA 2: TGCGTTGCATAAAT
binding result [1]: binds | binding result [2]: binds
